From patent US20160090637A1 (published 2016) come the findings set out here.

This assay deals with T1, IL-10R1 S138G homozygous mutant on primary B-CLL cells (human, UniProt Q13651 22-578).
T1 construct: Endogenous receptor on purified B-CLL cells of patients homozygous (GG) for the mutation; also called S159G of the IL-10R1 precursor; GG homozygous mutant
T1 sequence: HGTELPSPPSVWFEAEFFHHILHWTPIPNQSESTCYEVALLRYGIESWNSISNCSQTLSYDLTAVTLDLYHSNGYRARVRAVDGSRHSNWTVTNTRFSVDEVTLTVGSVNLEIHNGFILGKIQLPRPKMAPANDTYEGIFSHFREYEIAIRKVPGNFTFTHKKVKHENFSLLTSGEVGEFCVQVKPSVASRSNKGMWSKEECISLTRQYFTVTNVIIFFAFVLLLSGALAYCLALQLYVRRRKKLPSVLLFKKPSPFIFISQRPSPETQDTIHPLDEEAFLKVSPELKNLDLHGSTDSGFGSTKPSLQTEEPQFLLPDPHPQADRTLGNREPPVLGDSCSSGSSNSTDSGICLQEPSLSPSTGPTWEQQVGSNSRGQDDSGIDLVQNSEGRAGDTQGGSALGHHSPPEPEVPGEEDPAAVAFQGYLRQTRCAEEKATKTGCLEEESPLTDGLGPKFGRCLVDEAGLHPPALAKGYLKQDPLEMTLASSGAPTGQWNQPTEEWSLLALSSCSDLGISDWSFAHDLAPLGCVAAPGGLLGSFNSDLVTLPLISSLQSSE
The assay is described as follows: flow cytometry, biotinylated IL-10 plus avidin-FITC on primary B-CLL cells; weaker than on wild-type cells. The method, then:
IL-10 binding with B-CLL cells was determined using Flurokine® Biotinylated Human Interleukin 10 Kit (R&D Systems) per the protocol. 25 μl (1×10⁵) purified B-CLL cells were incubated with 10 μl biotinylated negative control reagents or biotinylated IL-10 for 1-hour at 2-8° C., then incubated with 10 μl of avidin-FITC for a further 30 minutes at 2-8° C. in the dark. Wash the cells twice with 2 ml of 1×RDF buffer 2 times. Add 200 μl 1×RDF buffer into each tube and do flow cytometry analysis.

B1: Biotinylated Human Interleukin 10 (Flurokine kit, R&D Systems) (ligand, UniProt P22301 19-178, looked up)
chain: SPGQGTQSENSCTHFPGNLPNMLRDLRDAFSRVKTFFQMKDQLDNLLLKESLLEDFKGYLGCQALSEMIQFYLEEVMPQAENQDPDIKAHVNSLGENLKTLRLRLRRCHRFLPCENKSKAVEQVKNAFNKLQEKGIYKAMSEFDIFINYIEAYMTMKIRN
modifications: biotinylated (sites not given) in the binding assay; unlabelled rh-IL-10 in the culture assays
notes: The STAT assays used rh-IL-10 (R&D Systems) at 10 ng/ml; also called IL-10; rh-IL-10
Turning to B1, the binding result is listed as “binds”.
